Assay results: publication PMC4245140, “Towards Engineering Hormone-Binding Globulins as Drug Delivery Agents” (PLoS ONE, 2014)
Read-outs that look alike come from different tables or passages of the source.

T1: human neutrophil elastase (Homo sapiens, UniProt P08246)
T1 sequence (P08246 30-267): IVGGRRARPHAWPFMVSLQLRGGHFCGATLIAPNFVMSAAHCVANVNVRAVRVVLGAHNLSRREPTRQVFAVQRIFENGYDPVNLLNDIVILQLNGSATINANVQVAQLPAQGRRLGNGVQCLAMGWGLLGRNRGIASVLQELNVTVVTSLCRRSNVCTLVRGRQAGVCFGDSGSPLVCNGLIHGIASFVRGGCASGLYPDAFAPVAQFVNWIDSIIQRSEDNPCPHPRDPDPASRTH


What was measured:
[1] = biological target: T1, human neutrophil elastase; assay: Protease cleavage assay (SDS-PAGE) with human neutrophil elastase; assay type: biochemical; conditions: protease:CBG 1:100, 37°C
Procedure: (§1) To determine if a particular target protease is able to cleave the reactive centre loop of an engineered CBG variant, the protease was incubated with CBG at a molar ratio of 1∶100 at 37°C for half an hour unless otherwise specified. Reactive loop cleavage is marked by a characteristic 4 kDa change in molecular weight following release of a peptide when the R-state CBG is unfolded, such as when it is subjected to the denaturing conditions of an SDS-PAGE [14], [22]. We used this as a convenient means by which to check the engineered protein's protease specificity and, as a corollary, its site specificity.

thrombin = biological target: T2, thrombin (Homo sapiens, UniProt P00734); assay: Protease cleavage assay (SDS-PAGE) with thrombin; assay type: biochemical; conditions: protease:CBG 1:100, 37°C, half an hour
T2 construct: causes the zymogen, prothrombin, to be cleaved to produce enzymatically-active thrombin
Procedure: as §1

[2] = Fluorimetric titration of L-T4-thyroxine-6-carboxyfluorescein with engineered CBG; assay type: binding
Procedure: (§2) Fluorescence spectroscopy was used to study the CBG-ligand interactions. Experiments were performed on an LS55 120V fluorescence spectrometer (Perkin Elmer), and the data were read and recorded using their proprietary FL WinLab software. For binding studies of CBG with cortisol, the excitation wavelength was set at 280 nm and the emission was detected at 350 nm, with a 315 nm cut-off filter used to prevent the excitation laser from leaching into the emission channel. For the binding studies of engineered CBG with L-T4-thyroxine-6-carboxyfluorescein, the excitation wavelength was set at 495 nm and emission was recorded at 520 nm whilst applying a 515 nm cut-off filter.
L-T4-thyroxine-6-carboxyfluorescein was previously synthesised and purified as a 1.09 µM solution with acetonitrile as its solvent. This was diluted into a 5 nM solution with a buffer containing 10 mM Tris-HCl, pH 7.4, 150 mM NaCl, 1 mM EDTA, 0.1% v/v PEG 8000. Aliquots of the engineered CBG were titrated into 800 µl of this solution, and increments in fluorescence signal were monitored.
(§3) In both cases, the data were fitted using Prism 5 (GraphPad Software) to the following equation to obtain the dissociation constant, Kd: [drawing 2] (2) where ΔF is the fluorescence change, ΔFM is the maximum change in fluorescence signal, [L]t is the total concentration of ligand added and [E]t is the total protein concentration.

[3] = Fluorimetric titration (intrinsic fluorescence quenching) of CBG with cortisol; assay type: binding; conditions: physiological temperature (37°C)
Procedure: CBG is known to bind cortisol with a one-to-one stoichiometry, [19]. Therefore, the dissociation constant, which is a measure of binding affinity, is given by the following equation: [drawing 1] (1) where [E]f is the concentration of free CBG, [L]f is the concentration of free ligand, and [E·L] is the concentration of the CBG-ligand complex.
as §2
The cortisol stock solution was prepared by dissolving lyophilised cortisol (Sigma Aldrich) in 80% ethanol to make a 500 µM solution, which was then diluted with water to make solutions of 20, 40 and 80 µM, with water being used as a negative control. Aliquots of the ligand solutions were then titrated into 800 µl of a 200 nM solution of CBG made by diluting the protein stock with a buffer containing 10 mM Tris-HCl, pH 7.4, 150 mM NaCl, 1 mM EDTA, 0.1% v/v PEG 8000, and the decrease in fluorescence due to quenching was measured.
as §3

[4] = biological target: prostate specific antigen (PSA) (Homo sapiens, UniProt P07288); assay: Protease cleavage assay (SDS-PAGE) with prostate specific antigen; assay type: biochemical; conditions: incubation 2-72 hours
Sequence of prostate specific antigen (PSA) (P07288 25-261): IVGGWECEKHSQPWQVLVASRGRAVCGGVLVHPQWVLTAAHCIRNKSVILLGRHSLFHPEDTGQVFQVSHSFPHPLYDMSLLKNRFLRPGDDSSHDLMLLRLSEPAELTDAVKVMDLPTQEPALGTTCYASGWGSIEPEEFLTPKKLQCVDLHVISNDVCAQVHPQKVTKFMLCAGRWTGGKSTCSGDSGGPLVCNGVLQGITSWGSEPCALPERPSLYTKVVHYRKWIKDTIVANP
Description: Reactive loop cleavage is marked by a characteristic 4 kDa change in molecular weight following release of a peptide when the R-state CBG is unfolded, such as when it is subjected to the denaturing conditions of an SDS-PAGE [14], [22]. We used this as a convenient means by which to check the engineered protein's protease specificity and, as a corollary, its site specificity.

[5] = design: method as in PMID 23783094; conditions: recombinantly expressed wild type CBG; cited from earlier work

| Cleavage of reactive centre loop by thrombin (thrombin; listed as CBG-Thr349Arg) | Kd ([3]; intact S-state, read-out: Kd for cortisol, S (uncleaved) conformation) [µM] | Fold change in Kd (cortisol) on reactive centre loop cleavage, S to R ([3]; disulphide mutants in absence of TCEP) [fold] | Kd ([3]; reactive centre loop-cleaved R-state, read-out: Kd for cortisol, R (cleaved) conformation) [µM] | Molecule | Cleavage by human neutrophil elastase [1] | Cleavage of reactive centre loop by thrombin (thrombin) | Affinity for L-thyroxine-6-carboxyfluorescein [2] | Cleavage of reactive centre loop by PSA [4] | Fold decrease in affinity for cortisol upon cleavage of reactive centre loop [5] [fold] |
| --- | --- | --- | --- | --- | --- | --- | --- | --- | --- |
| successfully cleaved by thrombin |  |  |  | CBG-T349R: Human CBG with P1 threonine of reactive centre loop mutated to arginine (protein, UniProt P08185 23-405, looked up, variant T349R) Corticosteroid-binding …: MDPNAAYVNMSNHHRGLASANVDFAFSLYKHLVALSPKKNIFISPVSISMALAMLSLGTCGHTRAQLLQGLGFNLTERSETEIHQGFQHLHQLFAKSDTSLEMTMGNALFLDGSLELLESFSADIKHYYESEVLAMNFQDWATASRQINSYVKNKTQGKIVDLFSGLDSPAILVLVNYIFFKGTWTQPFDLASTREENFYVDETTVVKVPMMLQSSTISYLHDSELPCQLVQMNYVGNGTVFFILPDKGKMNTVIAALSRDTINRWSAGLTSSQVDLYIPKVTISGVYDLGDVLEEMGIADLFTNQANFSRITQDAQLKSSKVVHKAVLQLNEEGVDTAGSTGVTLNLRSKPIILRFNQPFIIMIFDHFTWSSLFLARVMNPV | further engineering would be required to remove elastase cleavage | same susceptibility to cleavage by thrombin as the CBG-antitrypsinPittsburgh chimera |  |  |  |
|  | 0.279 ± 0.018 | 2.6 | 0.734 ± 0.048 | wild-type: Recombinant wild type human corticosteroid binding globulin expressed in E. coli (protein, UniProt P08185 23-405, looked up, expressed in E. coli) Corticosteroid-binding …: MDPNAAYVNMSNHHRGLASANVDFAFSLYKHLVALSPKKNIFISPVSISMALAMLSLGTCGHTRAQLLQGLGFNLTERSETEIHQGFQHLHQLFAKSDTSLEMTMGNALFLDGSLELLESFSADIKHYYESEVLAMNFQDWATASRQINSYVKNKTQGKIVDLFSGLDSPAILVLVNYIFFKGTWTQPFDLASTREENFYVDETTVVKVPMMLQSSTISYLHDSELPCQLVQMNYVGNGTVFFILPDKGKMNTVIAALSRDTINRWSAGLTSSQVDLYIPKVTISGVYDLGDVLEEMGIADLFTNQANFSRITQDAQLKSSKVVHKAVLQLNEEGVDTAGSTGVTLNLTSKPIILRFNQPFIIMIFDHFTWSSLFLARVMNPV |  | remained unreactive | no affinity | no evidence of reactive centre loop cleavage | 2.6 |
